In US20240270874A1 (JIANGSU HENGRUI PHARMACEUTICALS, published 2024):

Assays:
[1] = target: human KLB & human FGFR3c on L6 cells (human, UniProt Q86Z14 1-1044; P22607 23-806); experiment: cell-based or functional assay
[2] = target: human KLB & human FGFR4 on L6 cells (human, UniProt Q86Z14 1-1044; P22455 22-802); experiment: cell-based or functional assay
[3] = target: T1, human KLB on CHOK1-hKLB cells (human, UniProt Q86Z14 1-1044); experiment: flow cytometry on CHOK1-hKLB cells
T1 construct: whole, on cells; also called human KLB antigen; β-Klotho
T1 sequence (looked up): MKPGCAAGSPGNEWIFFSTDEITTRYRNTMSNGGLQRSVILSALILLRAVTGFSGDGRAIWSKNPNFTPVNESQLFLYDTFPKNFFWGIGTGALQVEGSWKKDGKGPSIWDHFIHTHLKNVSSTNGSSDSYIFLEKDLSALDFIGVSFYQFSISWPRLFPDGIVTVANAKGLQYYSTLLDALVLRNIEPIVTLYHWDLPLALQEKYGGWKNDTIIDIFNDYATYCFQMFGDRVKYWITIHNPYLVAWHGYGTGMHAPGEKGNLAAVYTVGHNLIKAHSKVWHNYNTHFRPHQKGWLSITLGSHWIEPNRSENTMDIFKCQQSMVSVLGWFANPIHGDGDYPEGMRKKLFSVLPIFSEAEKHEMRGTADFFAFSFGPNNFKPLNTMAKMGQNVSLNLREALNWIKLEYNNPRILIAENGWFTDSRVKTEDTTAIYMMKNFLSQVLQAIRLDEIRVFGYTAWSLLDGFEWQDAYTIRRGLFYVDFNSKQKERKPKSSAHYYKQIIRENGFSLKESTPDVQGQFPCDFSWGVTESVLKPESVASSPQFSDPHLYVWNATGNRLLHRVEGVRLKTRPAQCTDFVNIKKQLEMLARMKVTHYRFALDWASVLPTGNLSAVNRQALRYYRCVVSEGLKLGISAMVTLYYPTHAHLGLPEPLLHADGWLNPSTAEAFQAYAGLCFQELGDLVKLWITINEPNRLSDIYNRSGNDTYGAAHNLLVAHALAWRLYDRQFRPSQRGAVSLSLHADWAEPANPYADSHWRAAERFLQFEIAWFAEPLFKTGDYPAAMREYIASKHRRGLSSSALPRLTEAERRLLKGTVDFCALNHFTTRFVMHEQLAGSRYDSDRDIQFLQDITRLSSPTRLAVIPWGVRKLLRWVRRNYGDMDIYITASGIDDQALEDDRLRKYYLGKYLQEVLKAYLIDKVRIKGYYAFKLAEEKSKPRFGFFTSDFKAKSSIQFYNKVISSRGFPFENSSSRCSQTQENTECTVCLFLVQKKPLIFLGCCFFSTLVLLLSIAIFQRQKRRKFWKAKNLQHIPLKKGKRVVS
Method: The binding ability of the antibodies for CHOK1 cell strains CHOK1-hKLB and CHOK1-cynoKLB overexpressing human KLB and monkey KLB (see Example 1 for specific preparation procedure), respectively, was detected by flow cytometry. The specific procedure was as follows: the above cells were cultured in 10% FBS-containing IMDM medium and incubated in an incubator at 37° C. and 5% CO₂ for 2 days. The cells were then added to a cell plate at 1×10⁵ cells per well, centrifuged at 300 g for 5 min, and then washed once with 1% BSA. The antibody diluted in gradient was added to the cell plate at 100 μL per well, and the mixture was incubated at 4° C. for 1 h and washed once with 1% BSA. The diluted (1:400) APC-goat anti-human IgG Fc fluorescent secondary antibody was added at 100 μL per well, and the resulting mixture was incubated at 4° C. for 1 h. The plate was washed three times with 1% BSA, PBS was added at 100 μL per well, and the plate was read.

[4] = target: T2, hKLB (R&D, Cat. # 5889-KB) (human, UniProt Q86Z14 53-997, limits assumed); experiment: SPR (Biacore T200), antibody captured on Protein A chip, hKLB as analyte, 1:1 model
T2 construct: bought soluble protein; also called KLB protein; human KLB
T2 sequence (looked up): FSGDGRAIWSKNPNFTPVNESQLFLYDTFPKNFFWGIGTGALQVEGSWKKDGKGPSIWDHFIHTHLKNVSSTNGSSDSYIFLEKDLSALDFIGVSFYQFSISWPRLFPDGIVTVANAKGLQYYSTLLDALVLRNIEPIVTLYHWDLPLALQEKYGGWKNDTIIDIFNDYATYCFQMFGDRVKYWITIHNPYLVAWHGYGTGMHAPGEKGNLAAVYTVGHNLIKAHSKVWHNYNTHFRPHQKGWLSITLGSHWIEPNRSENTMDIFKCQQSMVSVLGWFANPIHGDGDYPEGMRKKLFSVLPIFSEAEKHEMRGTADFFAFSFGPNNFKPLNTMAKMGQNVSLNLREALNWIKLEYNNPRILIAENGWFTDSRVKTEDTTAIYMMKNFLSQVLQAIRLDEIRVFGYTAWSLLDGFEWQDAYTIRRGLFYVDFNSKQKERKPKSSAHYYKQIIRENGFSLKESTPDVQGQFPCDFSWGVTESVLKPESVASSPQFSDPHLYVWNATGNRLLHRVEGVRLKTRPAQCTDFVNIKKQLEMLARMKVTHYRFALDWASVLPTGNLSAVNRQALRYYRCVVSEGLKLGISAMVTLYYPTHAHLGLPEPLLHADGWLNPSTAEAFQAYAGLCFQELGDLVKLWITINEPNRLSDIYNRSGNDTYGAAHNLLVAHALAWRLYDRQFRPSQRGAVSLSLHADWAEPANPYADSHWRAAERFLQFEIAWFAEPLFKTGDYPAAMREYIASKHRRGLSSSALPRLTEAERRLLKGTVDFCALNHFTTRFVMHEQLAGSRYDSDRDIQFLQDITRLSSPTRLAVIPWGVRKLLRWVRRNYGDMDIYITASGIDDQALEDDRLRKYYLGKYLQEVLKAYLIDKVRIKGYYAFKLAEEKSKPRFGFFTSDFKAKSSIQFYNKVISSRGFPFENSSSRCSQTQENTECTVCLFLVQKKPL
From the text: A Protein A biosensor chip (Cat. # 29127556, GE) was allowed to affinity capture an antibody, and then a certain concentration of hKLB (R&D, Cat. # 5889-KB) was allowed to flow through the surface of the chip. The reaction signals were detected in real time using a Biacore T200 instrument to obtain an association and dissociation curve. After dissociation was complete in each experiment cycle, the biosensor chip was washed with Glycine1.5 (Cat. # BR-1003-54, GE) for regeneration. The data were fitted using a 1:1 model to obtain antibody affinity data, and the specific experimental results are shown in Table 10 below.

Sequence of human KLB & human FGFR3c on L6 cells (P22607 23-806, chain 2 of 2, one chain of several): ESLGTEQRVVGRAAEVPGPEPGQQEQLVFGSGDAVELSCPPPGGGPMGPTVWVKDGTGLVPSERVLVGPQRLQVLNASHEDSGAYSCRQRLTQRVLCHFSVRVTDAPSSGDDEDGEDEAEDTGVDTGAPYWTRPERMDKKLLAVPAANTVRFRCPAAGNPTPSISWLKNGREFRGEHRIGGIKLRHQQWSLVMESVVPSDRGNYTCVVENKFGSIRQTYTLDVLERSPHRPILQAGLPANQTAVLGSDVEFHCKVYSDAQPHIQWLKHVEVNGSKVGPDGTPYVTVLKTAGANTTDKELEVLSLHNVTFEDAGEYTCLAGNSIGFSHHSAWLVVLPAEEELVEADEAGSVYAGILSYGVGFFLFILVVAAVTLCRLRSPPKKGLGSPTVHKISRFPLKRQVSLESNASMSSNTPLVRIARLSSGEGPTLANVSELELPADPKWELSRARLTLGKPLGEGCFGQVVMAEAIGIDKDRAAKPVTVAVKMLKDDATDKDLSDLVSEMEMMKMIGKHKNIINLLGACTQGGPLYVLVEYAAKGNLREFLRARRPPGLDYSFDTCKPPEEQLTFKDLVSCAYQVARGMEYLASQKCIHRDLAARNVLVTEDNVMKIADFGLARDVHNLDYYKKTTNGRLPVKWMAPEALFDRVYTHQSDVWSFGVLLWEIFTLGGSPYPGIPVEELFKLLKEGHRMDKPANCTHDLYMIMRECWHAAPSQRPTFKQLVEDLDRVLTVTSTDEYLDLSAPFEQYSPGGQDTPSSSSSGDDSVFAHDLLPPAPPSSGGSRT
Sequence of human KLB & human FGFR4 on L6 cells (P22455 22-802, chain 2 of 2, one chain of several): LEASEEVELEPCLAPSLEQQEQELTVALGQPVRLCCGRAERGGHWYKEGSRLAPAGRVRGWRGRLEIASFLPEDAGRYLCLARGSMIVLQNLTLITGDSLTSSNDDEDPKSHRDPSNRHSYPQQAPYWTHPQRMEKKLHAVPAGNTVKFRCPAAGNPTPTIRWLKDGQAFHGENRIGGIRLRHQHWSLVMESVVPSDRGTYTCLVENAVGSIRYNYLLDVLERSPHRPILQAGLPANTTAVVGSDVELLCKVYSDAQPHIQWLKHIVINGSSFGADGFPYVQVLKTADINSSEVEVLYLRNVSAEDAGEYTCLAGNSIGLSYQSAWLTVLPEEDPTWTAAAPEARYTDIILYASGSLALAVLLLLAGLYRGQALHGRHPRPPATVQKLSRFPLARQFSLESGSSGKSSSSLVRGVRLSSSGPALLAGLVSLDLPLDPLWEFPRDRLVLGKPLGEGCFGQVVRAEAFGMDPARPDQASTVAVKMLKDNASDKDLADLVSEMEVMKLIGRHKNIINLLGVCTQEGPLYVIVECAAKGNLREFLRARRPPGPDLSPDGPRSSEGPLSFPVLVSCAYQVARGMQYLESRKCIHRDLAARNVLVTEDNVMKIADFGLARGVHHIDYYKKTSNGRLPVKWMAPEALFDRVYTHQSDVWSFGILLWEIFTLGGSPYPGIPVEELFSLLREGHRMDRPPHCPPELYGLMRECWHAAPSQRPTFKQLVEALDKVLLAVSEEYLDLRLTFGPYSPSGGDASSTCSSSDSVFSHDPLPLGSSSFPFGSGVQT

| Binder | Activation fold, pERK/total ERK in L6-hKLB&hFGFR3c cells [1] [fold] | Activation fold, pERK/total ERK in L6-hKLB&hFGFR4 cells [2] [fold] | EC50 [3] [nM] | Kd [4] [nM] | koff [4] [s⁻¹] | kon [4] [M⁻¹ s⁻¹] |
| --- | --- | --- | --- | --- | --- | --- |
| hAb18-8 (antibody, human IgG1, kappa, L234A L235A, V domains shown, human IgG1 (L234A, L235A) / kappa) VH: EVQLVQSGAEVKKPGASVKVSCKASGYTFTDYAMHWVRQAPGQRLEWMGVISTYSGTTNYNQNFKGRVTITVDKSASTAYMELSSLRSEDTAVYYCARSGPLDYWGQGTTVTVSS VL: ENVLTQSPDFQSVTPKEKVTITCRATSSVSSSYLHWYQQKPDQSPKLWIYSTSQLASGVPSRFSGSGSGTDYTLTINSLEAEDAATYYCQQYSGYPLTFGQGTKLEIKR | 1.41 | 0.98 | 1.93 | 0.977 | 0.000103 | 106000 |
| hAb-23 (antibody, human IgG1, kappa, L234A L235A, V domains shown, from a human natural phage library; human IgG1 (L234A, L235A) / kappa; also called fully human antibody hAb-23) VH: QVQLVQSGAEVKKPGSSVKVSCKASGGTFSSYAISWVRQAPGQGLEWMGGIIPIFGTANYAQKFQGRVTITADESTSTAYMELSSLRSEDTAVYYCARELVSYYYGMDVWGQGTMVTVSS VL: not shown | 1.08 | 0.91 | 0.39 | 0.199 | 4.91e-05 | 247000 |
| hAb99-13 (antibody, human IgG1, kappa, L234A L235A, V domains shown, human IgG1 (L234A, L235A) / kappa) VH: EVQLVQSGAEVKKPGASVKVSCKASGYTFTNYGINWVRQAPGQRLEWMGYIYIGNVDIEYNAKFKGRVTITSDTSASTAYMELSSLRSEDTAVYYCARGRGLGHFDVWGQGTTVTVSS VL: DIQMTQSPSSLSASVGDRVTITCRASKSISKFLAWFQQKPGKTNKLLIYSGSTLQSGVPSRFSGSGSGTDFTLTISSLQPEDFATYYCQQHNEYPWTFGGGTKVEIKR | 4.95 | 1.54 | 0.44 | 2.1 | 0.000626 | 298000 |
